Measured values reported in paper PMC6048556.

Assays:
[1] = target: PIP30/FAM192A (endogenous) (human (endogenous in U2OS, HeLa, U937)) (UniProt Q9GZU8); test: co-IP
[2] = target: PA28γ (endogenous) (human (endogenous in U2OS, HeLa, U937)) (UniProt P61289); test: co-IP

Sequence of UniProt Q9GZU8 (Q9GZU8 whole entry): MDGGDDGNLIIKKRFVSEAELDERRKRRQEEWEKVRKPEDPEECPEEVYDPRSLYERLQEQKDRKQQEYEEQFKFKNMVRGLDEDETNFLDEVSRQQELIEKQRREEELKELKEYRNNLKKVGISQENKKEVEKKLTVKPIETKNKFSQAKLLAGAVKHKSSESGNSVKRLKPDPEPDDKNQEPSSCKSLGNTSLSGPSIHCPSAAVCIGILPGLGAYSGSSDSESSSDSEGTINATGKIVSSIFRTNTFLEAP

Substance	percent coprecipitated [1]	percent coprecipitated [2]
PA28γ (endogenous) (from UniProt P61289 1-254) (natural protein)	> 70%	
PIP30/FAM192A (endogenous) (from UniProt Q9GZU8 1-254) (natural protein)		> 70%
